The subject of the experiment is ETP transfected MCF7 cells. Description: ETP transfected MCF7 tumor growth in nude mice. The class given is in vivo. On the procedure: FIGS. 5A-C. Antibody effects on ETP-MCF7 cells in vivo. (FIG. 5A) ETP transfected MCF7 cells (2×10^6 cells) were implanted into nude mice. An estradiol pellet (0.72 mg) was implanted into nude mice. Then (i) 20 mg/kg ETPmAb4, (ii) 10 mg/kg ETPmAb4 with 10 mg/kg control IgG, (iii) 5 mg/kg ETPmAb4 with 15 mg/kg control IgG, (iv) 2 mg/kg ETPmAb4 with 18 mg/kg control IgG, and (v) 20 mg/kg control IgG (twice a week) were injected after 10-days implantation for 5-weeks. Tumor volume was determined by caliper measurement. Data was represented as mean±SD (n=5/group), and *** p<0.0001 by ANOVA followed by Newman-Keuls multiple comparison test. (FIG. 5B) Total RNA was prepared from tumor tissues from ETP transfected MCF7, ETPmAb4 treatment mice. The EMT markers genes Twist, Snail, Cdh2 and Cdh 1 were determined by qRT-PCR, then normalized to GAPDH. E-CAD immunofluorescence staining for tumor tissues from ETP transfected MCF7 and ETPmAb4 treatment tumor. (FIG. 5C) MCF7 and ETP transfected MCF7 cells (2×10^6 cells) were implanted into nude mice. An estradiol pellet (0.72 mg) was implanted into nude mice. Then 20 mg/kg of antibody ETPmAb4 (twice a week), and 2.5 mg/kg of cisplatin (once a week) were injected after 10-days implantation for 6-weeks. Tumor volume was determined by caliper measurement. Data was represented as mean±SD (n=5/group), and *** p<0.0001 by ANOVA followed by Newman-Keuls multiple comparison test.
Animal experiments. NU/NU nude female mice were purchased from Charles River (Crl: NU-Foxnlnu; Strain Code 088 (Homozygous)). Breast cancer cells (2×10^6 cells) were implanted by intraductal injection. All cell lines were mixed on ice with 1×PBS and Matrigel. Then 100 μL of mixture was injected into mice. Tumors were measured twice a week, beginning 10 days after injection, and tumor volume was calculated by length×(width) 2/2 (mm^3).
Analysis of Tumor Progression. Tumor onset was monitored twice weekly by palpation. Tumor sizes were measured using a digital caliper twice weekly and the volumes were calculated as length× width2)/2. Inguinal tumors were weighted to determine tumor burden. Animals were sacrificed when the tumor burden visibly affected the host, or when the tumors reached the IACUC pre-determined limit of 20 mm along one axis.
As a next step, whether the anti-endotrophin antibodies effectively curb the aggressive tumor growth observed in endotrophin overexpressing MCF-7 cells was examined. To boost the growth rate of the tumor cells, these assays were performed in the presence of estradiol pellets. Cells (2×10^6 cells) were injected into nude mice and their tumor growth was monitored over time, based on a twice weekly injection of either a control monoclonal preparation, or ETPmAb4; in all cases, a total of 20 mg/kg of antibody was used. The dose dependence was tested by either injecting 20 mg/kg of control antibody, 20 mg/kg of ETPmAb4, or a mixture of the two with decreasing levels of control antibody mixed with increasing levels of ETPmAb4.
To test this, MCF7 cells were used with or without endotrophin overexpression, and the cells were transplanted into nude mice, in the presence of estradiol pellets (FIG. 5C). […] As expected, MCF7 cells harboring an excess in endotrophin grew very aggressively (FIG. 5C; red line).

B1: ETP-mAb4: rabbit monoclonal anti-human endotrophin antibody selected for further study; VH SEQ ID NO: 125, VL SEQ ID NO: 126 (antibody, V domains shown)
VH: SSRVKESGGDLVKPGASLTLTCKASGFSFSSGYYICWVRQAPGKGLEWIACIYGGNNNPYYANWVNGRFTTSKTSSTTVTLQMTNLTGADTATYFCARKDINIGGAYELWGPGTLVTISS
VL: ELVMTQTPASVSEPVGGTVTINCQASQSISSSYLSWYQQKPGQPPKLLIYKASTLASGVPSRFKGSGSGTQFSLTISDLECADAATYYCQYSDWANSYGNAFGGGTEVVVK
Regarding B1, the “lesion growth, combination with cisplatinum” value (20 mg/kg ETPmAb4 twice a week plus 2.5 mg/kg cisplatin once a week) is listed as “lesion growth was reduced down to essentially baseline”. The “tumor growth at the highest dose” value (20 mg/kg twice a week, estradiol pellet) is listed as “almost completely curbing the aggressive tumor growth”. Further, the “rate of tumor growth” value (2-20 mg/kg twice a week, estradiol pellet, vs control IgG) is “significantly reduced in a dose-dependent fashion the rate of tumor growth over time”. In addition, the “EMT signature in tumor tissue (Twist, Snail, Cdh2, Cdh1 qPCR)” value (antibody-treated tumors) is “reduced EMT signature”.

The values are drawn from patent US12331110B2, “Monoclonal antibodies against endotrophin and the use thereof” (THE BOARD OF REGENTS OF THE UNIVERSITY OF TEXAS SYSTEM, priority 2018, dated 2025).
